We go through 41 sequences from the nanobody polyreactivity screen of Harvey et al. (2022).

This data set in a line: yeast display, Sf9 membrane polyspecificity reagent, FACS + sequencing; frameworks hold sequencing errors. In short, it runs like this:
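Galactose induction of a Saccharomyces cerevisiae BJ5465 synthetic nanobody display library ran 36–48 hours. The cells were then stained for 1 hour at 4 °C with 10% biotinylated, detergent-solubilized Sf9 membrane reagent, pulled down on streptavidin microbeads and FACS-sorted into low and high (top ~1%) gates on expression and reagent-binding fluorescence. Labels for polyreactivity follow the gate of origin.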
Turning to “QVQLVESGGCLVQAGGSLRLSCAASGLIFAEYAMGWYRQAPGKERELVARITSGGSTDYADSVKGRFTISRDNAKNTVFLQMNSLKPEDTAVYYCAAAYAYWGQGTQVTVSS”, the “polyreactivity (PSR sort gate)” value is recorded as “low polyreactivity”.
For the sequence “QVQLVESGGCLVQAGGSLRLSCAASGLIFLGYAMGWYRQAPGKERELVASIRTGGSTSYADSVKGRFTISRDNAKNTVYLQMYSLKPEDTAVYYCAADRGRPNLPGDYWGQGTQVTVSS”, the “polyreactivity (PSR sort gate)” value is on record as “low polyreactivity”.
As for “QVQLVESGGCLVQAGGSLRLSCAASGLTFRGYAKGWYRPAPGKERELVAAITSSAGRTNYADSVKGRFTISRDNAKNTVYLQMNSLNPEDTAVYYCAAAHSYTTRWGYYKFNYWGQGTQVSVSS”, the “polyreactivity (PSR sort gate)” value is recorded as “high polyreactivity”.
Regarding “QVQLVESGGCLVQAGGSLRLSCAASGLTFSRYAMGWYRQAPGKERELVASSSQGGGSTYYADSVKGRFTISRDNAKITVYFQMNSLIPEDTAVYYCAASWYYSLQRYGYWGQGTQETVSS”, the “polyreactivity (PSR sort gate)” value was “high polyreactivity”.
Turning to “QVQLVESGGCLVQAGGSLRLSCAASGNTFRRNVMGWYRQAPGKERELVPAINRGGSTTYADSVKGRFTISRDNAMNTVYLQMNSLKPEDTAVYYCNAEKRGQSYRFDYWGQGSQVTVSS”, the “polyreactivity (PSR sort gate)” value is on record as “high polyreactivity”.
Consider “QVQLVESGGCLVQAGGSLRLSCAASGRIFAYNAMGWYRQAPGKESELVAAITRGGSTNYADSVKGRFTISRDNAKNTVYLQMNSLKPEDTAVYYCAARRVDTRVHVRYRYYYWGQGTQVTVSS”, for which the “polyreactivity (PSR sort gate)” value is given as “high polyreactivity”.
For “QVQLVESGGCLVQAGGSLRLSCAASGRIFHSNAMGWYRQAPGKERELVAAISTAGSTYYADSVKGRFTISRDNAKNTVYLQMNSLKPEDTAVYYCNAESPWWWEYDSWGQGTQVTVSS”, the “polyreactivity (PSR sort gate)” value is “high polyreactivity”.
As for “QVQLVESGGCLVQAGGSLRLSCAASGRIFVYYAMGWYRQAPGKERELVAGISLSGGSTYYADSVKGRFTISRDNAKNTVYLQMYSLKPEDTAVYDSAIEVNAGYYVWYDYWGQGTQVTVSS”, the “polyreactivity (PSR sort gate)” value is on record as “low polyreactivity”.
Take “QVQLVESGGCLVQAGGSLRLSCAASGRSFRLYAMGGYRQAPGKERELVAAITRGGRTNYADSVKGRFTISRDNAKNTVYLQMNSLKPEDTAVYYCAARYVERHTDYYYWGQGTQVTVSS”: the “polyreactivity (PSR sort gate)” value is “low polyreactivity”.
As to “QVQLVESGGCLVQAGGSLRLSCAASGRTFDVYAMGWYRQAPGKERELVATIRSDGSTTYADSVKGRFTISRDNAKNTVYLQMNSLKPEDTAVYYCAADFRSGFSSSTTPVQSDWGQGTQVTVSS”, the “polyreactivity (PSR sort gate)” value is listed as “low polyreactivity”.
Consider “QVQLVESGGCLVQAGGSLRLSCAASGRTFLANAMGWYRQAPGKERELVAAITWSGGRTNYADSVKGRFTISRDNAKNTVYLQMNSLKPEDTAVYYCAADIFYEQVVGGTDVGYHDFDYWGQGTQVTVSS”, for which the “polyreactivity (PSR sort gate)” value was “low polyreactivity”.
The result for “QVQLVESGGCLVQAGGSLRLSCAASGRTFYFYTMGWYRQAPGKERQLVATIRWSAGSTYYADSVKGRFTISRDNAKNTVYLQMNSLKPEDTAVYYCNADPYVYSSWQYGYWGQGTQVTVSS” reads “high polyreactivity”.
For the sequence “QVQLVESGGCLVQAGGSLRLSCAASGSIFDGNTMGWYRQAPGKERELVAAITWSGGSTYYADSVKGRFTISRDNAKNTVYLQMNSLKPEDTAVYYCAAEYWDSDPYDYWGQGTQVTVSS”, the “polyreactivity (PSR sort gate)” value is listed as “low polyreactivity”.
In the case of “QVQLVESGGCLVQAGGSLRLSCAASGSIFKWYAMGWYRQAPGKERELVAAITRGGSTNYADSVQGRFTISRDNAKNTVYLQMNSLKPEDTAVYYCNAVYTYRSGFGYWGQGTQVTVSS”, the “polyreactivity (PSR sort gate)” value is on record as “low polyreactivity”.
In the case of “QVQLVESGGCLVQAGGSLRLSCAASGSIFPPYAMGWYIPAPGKERELVAAISRRGGSTYYADSVKGRFTISRDNAKNTVYLQMNSLKPEDTAVYYCAARGGQMEYWGQGTQVTVSS”, the “polyreactivity (PSR sort gate)” value is on record as “high polyreactivity”.
On to “QVQLVESGGCLVQAGGSLRLSCAASGSIFPWYAMGWYRQAPGKERELVADISYSGSGTYYADSVKGRFAISRDNGKNNVYLQMTSLKPEDSAVYYCNAQRAEWYPVGRYEYWGQGSQVTVSS”, for which the “polyreactivity (PSR sort gate)” value was “low polyreactivity”.
For the sequence “QVQLVESGGCLVQAGGSLRLSCAASGSIFRYYAMGWYRQAPGKDRELVAAISWSSGRTYYADSVKGRFTISRDNAKNTVYLQMNSLKPEDTAVYYCAAGVPGYPRYEYDYWGQGTQVTVSS”, the “polyreactivity (PSR sort gate)” value is listed as “high polyreactivity”.
Consider “QVQLVESGGCLVQAGGSLRLSCAASGSIFSANAMGWYRQAPGKETELVAAITRGGSTNYADSVKGRFTIARDNAKNTVYLQMNSLKPEDTAVYYCNDEPDPYSSGRVRRDYDYWGQGTQVTVSS”, for which the “polyreactivity (PSR sort gate)” value is “low polyreactivity”.
Turning to “QVQLVESGGCLVQAGGSLRLSCAASGSIFVSYAMGWYRQAPGTERELVAAITGRTGSTYYADSVKGRFTISRDNAQNTVYLQMNSLKPEDTEVYYCAARHKPHHRYDYWGQGTQVTVSS”, the “polyreactivity (PSR sort gate)” value is “low polyreactivity”.
Regarding “QVQLVESGGCLVQAGGSLRLSCAASGSIFYSYAMGWYRQAPGKEMELVADISSDGSTNYADSVKGRFTISRDNAKNTVYLQMNSLKPEDTAVYYCAKKPSSARYVTIGFDYWGQGTQVTVSS”, the “polyreactivity (PSR sort gate)” value is recorded as “low polyreactivity”.
As to “QVQLVESGGCLVQAGGSLRLSCAASGSTFDYYMGWYRQAPGKERELVAAITYSGGSTYYADSVKGRFTISRDNAKNSVYLQMNSLNPEDTAVYYCAKDRSTFDDFYSNYYWGQGTQVTVSS”, the “polyreactivity (PSR sort gate)” value was “low polyreactivity”.
Take “QVQLVESGGCLVQAGGSLRLSCAASGSTFENYAMGWYRPAPGKERELVATISIDGRTNYADSVKGRFTISRDNAKNTVFLQMNSLKPEDTGVYYCAARPYWRHRYDYWGQGTQVTVSS”: the “polyreactivity (PSR sort gate)” value is “low polyreactivity”.
For the sequence “QVQLVESGGCLVQAGGSLRLSCAASGSTFFSYAMGWYRQAPGKESEFVAANTYSSGRTYYADSVKGRFTISRDNAKNTVYLQMHSLKAEDSAVYSCSTPGFVWGRGYDYWGQGTHVTVSS”, the “polyreactivity (PSR sort gate)” value is given as “high polyreactivity”.
As to “QVQLVESGGCLVQAGGSLRLSCAASGSTFRGNDMGWYRQAPGKEREFVAAITVSGGSTYYADSVKGRFTISRDNAKNTVYLQMNSLKPDDTAVYFCDARYLRYSSKTIQNEDYWGLGTQVTVSS”, the “polyreactivity (PSR sort gate)” value was “high polyreactivity”.
For “QVQLVESGGCLVQAGGSLRLSCAASGSTFSWYTMGWYRQAPGKERELVAAITRGGTTYYADSVKGRFTISRDNAKNTVYLQMNSLKPEDSAVYYCAARYSRDVRMGYWGQGTQVTVSS”, the “polyreactivity (PSR sort gate)” value was “high polyreactivity”.
Next, “QVQLVESGGCLVQAGGSLRLSCAASGSTFVKIVMGWYRQAPGKERELVAGITRGGSTYYADSVKGRFTISRDNAKNTVYLQMNSLKPEDTPVYYCAKRYAWDRDYWGQGTQVTVSS”: “high polyreactivity”; “QVQLVESGGCLVQAGGSLRLSCAASGYIFGYNAMGWYRQAPGKERELVAAISYSGGSTYYADSVKGRFTISRDNAKNTVYLQMNSLKPVDTAVYYCAAGAKWIYHYYSSLQYGYWGQGTQVTVSS”: “high polyreactivity”.
Consider “QVQLVESGGCLVQAGGSLRLSCAATGIIFDGYAMGWYRQAPGKERELVAAISWSGGSTYYADSVKGRFTISRDNAKNTVYLQMNSLKPEDTAVYYCAAALPGWYHDDYDYWGQGTQVTVSS”, for which the “polyreactivity (PSR sort gate)” value is listed as “low polyreactivity”.
As to “QVQLVESGGCLVQAGGSLRLSCAATGRIFKRYVMGWYRQAPGKERELVAAISQRGGSTNYADSVKGRFTISRDNAKNTVYLQMNSLKPEDTAVYYCAAGFFSRYDYWGQGTQVTVSS”, the “polyreactivity (PSR sort gate)” value was “high polyreactivity”.
Turning to “QVQLVESGGCLVQAGGSLRLSCCASARTFWYYTMGWYRQAPGKERELVASISRVTSTYYADSVKGRLTSSRDNAKNTVYLQMNSLKPEDTAVYYCAGLQIRRSYWRTFYWGQGTQVTVSS”, the “polyreactivity (PSR sort gate)” value is recorded as “low polyreactivity”.
In the case of “QVQLVESGGCLVQAGGSLRLSCYASGIIFAWYAMGWYRQAPGKERQLVAAISYSGCTTYYADSVKWRFTISRDNAKNTVYFKMNSLKPVDTAVYYCAALLHHFFTYDYWGQGTQVTVSS”, the “polyreactivity (PSR sort gate)” value is reported as “low polyreactivity”.
For “QVQLVESGGCLVQAGGSLRLSCYASGSIFVDKAMGWFRQPPGKERELVAAITDSGGRTYYADSVKGRFTISRDNAKNTVYLQKNSLKPEDTAVYYCAAGQSGYAGRRPAFGSWGQGTQVTVSS”, the “polyreactivity (PSR sort gate)” value is listed as “low polyreactivity”.
As for “QVQLVESGGCLVQAGGSLRLSSAASGFIFSRYAMGWYRQATGKERELVASISWGGGSTSYADSVKGRFTISRDNAKYTVYLQMNSLKPEDTAVYYCNARVRSHRFNYWGQGTQVTVSS”, the “polyreactivity (PSR sort gate)” value is given as “high polyreactivity”.
With “QVQLVESGGCLVQAGGSLSLSCAASGSTFVAYAMGWYRQAPGKESELVAAISKSGVRTYYADYVKGRFTISRDNAKNTVYLQMNSLKPEDSAFYYCAALTYYSQVTSSVSLQQYGYWGQVTQVTVSS”, the “polyreactivity (PSR sort gate)” value is listed as “low polyreactivity”.
For the sequence “QVQLVESGGCLVQAGVSLRLSCAASGRIFAYYAMGWYRQAPRKERELVAAISRSGVSTYYADSVKGRFTISRDNAKNTVYIQMNSLKPEDTAVYYCAARWRSGFTSGDYWGQGTQVTVSS”, the “polyreactivity (PSR sort gate)” value is given as “low polyreactivity”.
The result for “QVQLVESGGCLVQEGGSLRLSCAASGRIININAMGWSRHAPGKEREMVAAITWRSGSTYYADSVKGRFTISRDNAKNTVYLQLNSLKPEDTAVYFCAADFSQTRRPIRFYYWGQGTQVTVSS” reads “high polyreactivity”.
Consider “QVQLVESGGDLVQAGGSLRLSCAASGGIFQKYVMGWYRQAPGKERELVARITSVGSTYYADSVKGRFTISRDNAKNTVYLQMNSLKPVDTAVYYCNAELYRRSQGYRFTAFDYWGQGTQVTVSS”, for which the “polyreactivity (PSR sort gate)” value is given as “low polyreactivity”.
With “QVQLVESGGDLVQAGGSLRLSCAASGYTFIVKAMGWYRQAPGKERELVAGISYRGGRTFYADSVKGRFTISRDNAKNNVYLQMNSLKPEDTAVYYCAARKTGIPFYNYDYWGQGTQVTVSS”, the “polyreactivity (PSR sort gate)” value was “low polyreactivity”.
Next, “QVQLVESGGGEVQAGGSLRLSCAASGIIFVDYVLGWYRQAPGTEMELVASIDGSGGSTNDADSVKGRFTISRDNAKNTVYLQLNRLKPEDTAVYYCTADNILYWSTLDYWGQGTHVTVSS”: “low polyreactivity”; “QVQLVESGGGFGQAGGSLRLSCAASGLIFRWYAMGWYRQAPGKERELVAAISWSGASTYYADSVKGRFTISRDNAKNTVYLQMNSLKPEDTAVYYCAADSAYWTYEYWGQGTQVTVSS”: “high polyreactivity”.
On to “QVQLVESGGGFVQAGGSLRLSCAASGFIFWLNAMGWYRQAPGKERELVAASSIGGRTNYADSVKGRFTISRDNAKNTVYLQMNSLTPEDTAVYFCNNDYRSVYKGRGFDYWGQGTQVTVSS”, for which the “polyreactivity (PSR sort gate)” value is recorded as “low polyreactivity”.
